The results in this text go back to patent publication US20260258128A1.

For test [1], the target named is CD3 on T cells of human peripheral blood mononuclear cells (human) (UniProt P07766). Description: cell-based or functional assay.
A further test has as its target human CD3εδ (human) (UniProt P07766). The test can be described thus: SPR (Biacore T200), binding to CD3εδ against binding to CD3εγ. For orientation: Surface plasmon resonance follows binding to a sensor surface in real time, without labels.

Chain of CD3 on T cells of human peripheral blood mononuclear cells (human) (P07766 23-207): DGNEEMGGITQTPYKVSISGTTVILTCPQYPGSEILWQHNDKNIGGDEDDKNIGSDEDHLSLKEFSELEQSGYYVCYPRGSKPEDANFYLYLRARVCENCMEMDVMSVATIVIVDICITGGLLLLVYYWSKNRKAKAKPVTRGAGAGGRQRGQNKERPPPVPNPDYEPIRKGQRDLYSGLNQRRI
Chain of human CD3εδ (human) (P07766 23-126, stated change not applied, chain 1 of 2): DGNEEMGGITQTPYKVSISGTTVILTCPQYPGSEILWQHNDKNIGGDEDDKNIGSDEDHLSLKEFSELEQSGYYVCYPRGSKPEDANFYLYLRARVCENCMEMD
Chain of human CD3εδ (human) (P04234 22-105, stated change not applied, chain 2 of 2, further chain): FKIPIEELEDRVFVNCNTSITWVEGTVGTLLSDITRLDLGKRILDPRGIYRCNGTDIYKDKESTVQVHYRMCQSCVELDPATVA

With CD3 (UCHT1)-binding monoclonal antibody, in test [1], the Death of cancer cells EC50 (MDA-MB-231 + human PBMC, flow cytometry) worked out at 0.5 pM; the Death of cancer cells Emax (%) was 46%; the IFNγ release EC50 was 3 pM; the IFNγ release Maximum concentration amounted to 16 ng/mL. In test [1], this substance had a T cell activation (CD3+ CD8+ CD69+), human PBMC only, flow cytometry of 60%. Besides, the ratio of the binding strength to CD3εδ/binding strength to CD3εγ with human CD3εδ (human) worked out at 19.3 fold.
